The target of assay [1] is T1, human IL-33 (R&D systems) (human, UniProt O95760 112-270).
T1 sequence (looked up): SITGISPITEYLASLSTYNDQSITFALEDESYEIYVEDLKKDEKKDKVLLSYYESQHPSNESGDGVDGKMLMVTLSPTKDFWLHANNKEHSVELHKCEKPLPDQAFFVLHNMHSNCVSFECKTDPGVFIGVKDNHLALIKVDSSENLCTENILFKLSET
In words: ELISA on coated human IL-33 (2 ug/mL), goat anti-human F(ab')2-HRP [panel 'Binding affinity to human IL-33'].

Assay [2] deals with T2, human IL-17RB protein (recombinant, R&D systems) (human).
T2 construct: Bought protein; also called hIL17RB
T2 sequence (Q9NRM6 whole entry, looked up): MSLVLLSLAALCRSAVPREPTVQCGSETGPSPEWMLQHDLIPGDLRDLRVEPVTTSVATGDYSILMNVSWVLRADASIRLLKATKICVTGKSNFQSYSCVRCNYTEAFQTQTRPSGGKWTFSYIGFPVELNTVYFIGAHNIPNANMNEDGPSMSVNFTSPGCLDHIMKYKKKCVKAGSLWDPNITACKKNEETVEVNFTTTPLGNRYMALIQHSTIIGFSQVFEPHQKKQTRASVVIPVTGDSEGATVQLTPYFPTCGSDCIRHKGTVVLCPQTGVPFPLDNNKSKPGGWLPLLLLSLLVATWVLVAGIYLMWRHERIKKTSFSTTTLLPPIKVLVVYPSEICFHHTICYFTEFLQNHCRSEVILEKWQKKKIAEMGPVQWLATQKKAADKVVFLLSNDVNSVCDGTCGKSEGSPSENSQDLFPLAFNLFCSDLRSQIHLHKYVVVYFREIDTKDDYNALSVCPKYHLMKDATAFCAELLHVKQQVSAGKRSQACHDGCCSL
In words: ELISA, coated receptor; SM17 at 0.4 µg/mL; well 2.

The target of assay [3] is T3, human IL-17 receptor subunit D (human, UniProt Q8NFM7 28-299, limits assumed).
T3 construct: also called IL17RD; hIL 17RD
T3 sequence (looked up): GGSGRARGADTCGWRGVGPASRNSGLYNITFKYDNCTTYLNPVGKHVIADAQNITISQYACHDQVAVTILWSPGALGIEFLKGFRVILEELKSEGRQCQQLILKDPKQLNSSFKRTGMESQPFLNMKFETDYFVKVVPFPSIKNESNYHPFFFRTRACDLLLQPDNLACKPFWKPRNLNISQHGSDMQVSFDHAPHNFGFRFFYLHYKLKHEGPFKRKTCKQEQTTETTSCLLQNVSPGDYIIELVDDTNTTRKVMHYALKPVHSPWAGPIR
In words: ELISA, coated receptor; SM17 at 0.4 µg/mL; well 2. A general note: An ELISA detects its analyte on a solid surface through an enzyme-linked reagent.

The target in assay [4] is T4, human IL-17 receptor subunit A (human, UniProt Q96F46 33-320).
T4 construct: also called IL17RA; hIL17RA
The experiment in a line: ELISA, coated receptor; SM17 at 0.4 µg/mL; well 2.

The target of assay [5] is T5, human IL-17 receptor subunit C (human, UniProt Q8NAC3-2 21-467, limits assumed).
T5 construct: also called IL17RC; hIL17RC
T5 sequence (looked up): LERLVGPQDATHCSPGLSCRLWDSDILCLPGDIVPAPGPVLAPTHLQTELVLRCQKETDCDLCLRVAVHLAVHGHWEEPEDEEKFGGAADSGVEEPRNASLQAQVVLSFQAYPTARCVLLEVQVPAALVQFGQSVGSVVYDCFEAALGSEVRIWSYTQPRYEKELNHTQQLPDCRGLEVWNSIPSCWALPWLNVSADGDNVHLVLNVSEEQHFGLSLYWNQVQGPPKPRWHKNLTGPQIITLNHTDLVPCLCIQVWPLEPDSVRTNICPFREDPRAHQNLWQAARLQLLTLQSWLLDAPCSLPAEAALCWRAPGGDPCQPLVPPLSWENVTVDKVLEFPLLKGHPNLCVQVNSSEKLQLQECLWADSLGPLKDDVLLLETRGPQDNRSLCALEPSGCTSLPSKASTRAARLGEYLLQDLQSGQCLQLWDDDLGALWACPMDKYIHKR
The experiment in a line: ELISA, coated receptor; SM17 at 0.4 µg/mL; well 2.

Assay [6] concerns the target T6, human IL-17 receptor subunit E (human, UniProt Q8NFR9 24-454, limits assumed).
T6 construct: also called hIL17RE
T6 sequence (looked up): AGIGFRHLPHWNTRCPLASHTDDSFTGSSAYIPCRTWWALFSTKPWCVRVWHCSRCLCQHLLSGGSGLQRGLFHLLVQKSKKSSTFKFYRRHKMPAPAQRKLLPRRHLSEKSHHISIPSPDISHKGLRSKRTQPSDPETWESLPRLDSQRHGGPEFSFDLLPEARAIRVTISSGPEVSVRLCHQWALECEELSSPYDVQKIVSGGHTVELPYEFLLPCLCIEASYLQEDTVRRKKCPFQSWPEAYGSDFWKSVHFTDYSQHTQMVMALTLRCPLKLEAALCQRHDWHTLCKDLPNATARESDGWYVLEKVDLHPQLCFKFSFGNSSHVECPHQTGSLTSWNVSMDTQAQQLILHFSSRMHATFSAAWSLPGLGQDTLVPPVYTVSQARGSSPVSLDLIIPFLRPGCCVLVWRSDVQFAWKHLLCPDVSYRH
In words: ELISA, coated receptor; SM17 at 0.4 µg/mL; well 2.

In assay [7] the target is T2, human IL-17RB protein (recombinant, R&D …). The experiment in a line: ELISA, coated receptor; SM17 at 0.016 µg/mL; well 2.
In assay [8] the target is T3, human IL-17 receptor subunit D. Described as above.
Assay [9] deals with T4, human IL-17 receptor subunit A. Described as above.
Assay [10] deals with T5, human IL-17 receptor subunit C. The assay is described as above.
For assay [11], the target named is T6, human IL-17 receptor subunit E. Described as above.
Assay [12] addresses T4, human IL-17 receptor subunit A. In words: ELISA, coated receptor; SM17 at 0.08 µg/mL; well 2.

B1: SM17 (antibody, human IgG4 S228P, kappa, V domains shown)
VH: QVQLVQSGAEVKKPGASVKVSCKASGYTFISYWMNWVRQAPGQGLEWMGRIDPYDSEIQYNQKFKDRVTMTRDTSISTAYMELSRLRSDDTAVYYCARSGGFDWFAYWGQGTLVTVSS
VL: DIQMTQSPSSLSASVGDRVTITCRASENINSNLAWYQQKPGKAPKLLLYDVTNLADGVPSRFSGSGSGTDYTLTISSLQPEDFATYYCQHFWGPPYTFGGGTKVEIKR
notes: other paragraphs and claim 15 call the same entries VH and VL; also called humanized anti-IL17RB monoclonal antibody
In the case of B1, in assay [1], the binding result is on record as “no binding”. In addition, the “OD 450 nm Absorption” value came to 1.31 OD450 in [2]; 0.08 OD450 in [3]; 0.22 OD450 in [4]; 0.18 OD450 in assay [5]; 0.05 OD450 in [6]; 0.3 OD450 in [7]. For the same molecule, the “OD 450 nm Absorption” value was 0.02 OD450 in assay [8]; -0.04 OD450 in assay [9]; 0.02 OD450 in assay [10]; -0.04 OD450 in assay [11]; 0.06 OD450 in assay [12].

(Values after patent US20240409647A1 (SINOMAB BIOSCIENCE, published 2024).)
